Molecular target: T1, hepatocyte nuclear factor 4α (HNF4α) (human (endogenous in HepG2), UniProt P41235 1-474)
T1 sequence (looked up): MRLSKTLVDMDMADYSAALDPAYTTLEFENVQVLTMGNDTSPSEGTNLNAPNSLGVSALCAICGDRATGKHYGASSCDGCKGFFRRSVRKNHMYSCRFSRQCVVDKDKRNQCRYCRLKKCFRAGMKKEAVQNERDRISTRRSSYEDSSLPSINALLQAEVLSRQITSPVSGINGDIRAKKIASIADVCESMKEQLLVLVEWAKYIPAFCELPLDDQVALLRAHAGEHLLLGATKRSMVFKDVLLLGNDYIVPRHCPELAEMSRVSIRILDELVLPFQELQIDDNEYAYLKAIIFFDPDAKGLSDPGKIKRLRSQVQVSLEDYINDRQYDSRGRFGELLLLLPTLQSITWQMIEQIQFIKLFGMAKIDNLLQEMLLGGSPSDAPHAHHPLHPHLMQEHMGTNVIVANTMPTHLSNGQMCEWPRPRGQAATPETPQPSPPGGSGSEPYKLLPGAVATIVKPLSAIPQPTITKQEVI
Assay: cell-based or functional assay

activity of a Gal4-HNF4α fusion on the UAS-TKLuc luciferase reporter in HepG2 cells with lipin 1 overexpression: > 3 fold
B1: lipin 1β (924 amino acid form of mouse lipin 1), HA-tagged (natural protein, UniProt Q91ZP3 1-924, looked up)
chain: MNYVGQLAGQVFVTVKELYKGLNPATLSGCIDIIVIRQPNGSLQCSPFHVRFGKMGVLRSREKVVDIEINGESVDLHMKLGDNGEAFFVQETDNDQEIIPMYLATSPILSEGAARMESQLKRNSVDRIRCLDPTTAAQGLPPSDTPSTGSLGKKRRKRRRKAQLDNLKRDDNVNSSEDEDMFPIEMSSDEDTAPMDGSRTLPNDVPPFQDDIPKENFPSISTHPQSASYPSSDREWSPSPSSLVDCQRTPPHLAEGVLSSSCPLQSCHFHASESPSGSRPSTPKSDSELVSKSADRLTPKNNLEMLWLWGELPQAAKSSSPHKMKESSPLGSRKTPDKMNFQAIHSESSDTFSDQSPTMARGLLIHQSKAQTEMQFVNEEDLESLGAAAPPSPVAEELKAPYPNTAQSSSKTDSPSRKKDKRSRHLGADGVYLDDLTDMDPEVAALYFPKNGDPGGLPKQASDNGARSANQSPQSVGGSGIDSGVESTSDSLRDLPSIAISLCGGLSDHREITKDAFLEQAVSYQQFADNPAIIDDPNLVVKVGNKYYNWTTAAPLLLAMQAFQKPLPKATVESIMRDKMPKKGGRWWFSWRGRNATIKEESKPEQCLTGKGHNTGEQPAQLGLATRIKHESSSSDEEHAAAKPSGSSHLSLLSNVSYKKTLRLTSEQLKSLKLKNGPNDVVFSVTTQYQGTCRCEGTIYLWNWDDKVIISDIDGTITRSDTLGHILPTLGKDWTHQGIAKLYHKVSQNGYKFLYCSARAIGMADMTRGYLHWVNERGTVLPQGPLLLSPSSLFSALHREVIEKKPEKFKVQCLTDIKNLFFPNTEPFYAAFGNRPADVYSYKQVGVSLNRIFTVNPKGELVQEHAKTNISSYVRLCEVVDHVFPLLKRSHSCDFPCSDTFSNFTFWREPLPPFENQDMHSASA
